The source of these data is article PMC4694753 (Molecular Biology of the Cell, 2016).

For this test, the target named is GFP-VASP (UniProt P50552 1-380). Description: co-IP.
Chain of GFP-VASP (P50552 whole entry): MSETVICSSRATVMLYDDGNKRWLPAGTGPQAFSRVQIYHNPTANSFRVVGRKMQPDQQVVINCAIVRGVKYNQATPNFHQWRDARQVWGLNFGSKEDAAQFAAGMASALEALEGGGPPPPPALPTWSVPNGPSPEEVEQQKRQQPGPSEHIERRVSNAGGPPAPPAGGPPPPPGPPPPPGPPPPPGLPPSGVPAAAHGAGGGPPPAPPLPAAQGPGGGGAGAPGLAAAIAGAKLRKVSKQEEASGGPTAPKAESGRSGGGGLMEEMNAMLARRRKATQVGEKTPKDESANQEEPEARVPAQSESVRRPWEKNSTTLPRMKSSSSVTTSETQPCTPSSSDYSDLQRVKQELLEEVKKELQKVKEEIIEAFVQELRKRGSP

B1: endogenous GRASP65 (natural protein)
chain: not shown
B1: the “amount coimmunoprecipitated, % relative to GFP-Mena” value turned out to be 8.2 ± 3.3%.
